Source: patent US20220363763A1 (ABL BIO, published 2022)

T1: Bio-LAG3 (human, UniProt P18627 23-450, limits assumed, biotinylated (sites not given))
T1 construct: also called human LAG3 protein
T1 sequence (looked up): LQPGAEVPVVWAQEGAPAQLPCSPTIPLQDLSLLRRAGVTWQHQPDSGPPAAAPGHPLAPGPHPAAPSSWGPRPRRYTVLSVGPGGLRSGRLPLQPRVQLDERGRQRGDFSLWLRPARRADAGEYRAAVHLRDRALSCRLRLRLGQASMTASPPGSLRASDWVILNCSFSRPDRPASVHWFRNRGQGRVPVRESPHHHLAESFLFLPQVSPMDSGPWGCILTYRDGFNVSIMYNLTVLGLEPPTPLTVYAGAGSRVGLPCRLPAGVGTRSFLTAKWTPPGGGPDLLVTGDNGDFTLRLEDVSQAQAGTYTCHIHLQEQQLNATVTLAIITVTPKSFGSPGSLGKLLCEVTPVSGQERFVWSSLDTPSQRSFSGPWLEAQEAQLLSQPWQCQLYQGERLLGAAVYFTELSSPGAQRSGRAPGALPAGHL

T2: human LAG3 on cells (human, UniProt P18627 23-525)
T2 construct: whole, on cells; also called Jurkat-LAG3
T2 sequence (looked up): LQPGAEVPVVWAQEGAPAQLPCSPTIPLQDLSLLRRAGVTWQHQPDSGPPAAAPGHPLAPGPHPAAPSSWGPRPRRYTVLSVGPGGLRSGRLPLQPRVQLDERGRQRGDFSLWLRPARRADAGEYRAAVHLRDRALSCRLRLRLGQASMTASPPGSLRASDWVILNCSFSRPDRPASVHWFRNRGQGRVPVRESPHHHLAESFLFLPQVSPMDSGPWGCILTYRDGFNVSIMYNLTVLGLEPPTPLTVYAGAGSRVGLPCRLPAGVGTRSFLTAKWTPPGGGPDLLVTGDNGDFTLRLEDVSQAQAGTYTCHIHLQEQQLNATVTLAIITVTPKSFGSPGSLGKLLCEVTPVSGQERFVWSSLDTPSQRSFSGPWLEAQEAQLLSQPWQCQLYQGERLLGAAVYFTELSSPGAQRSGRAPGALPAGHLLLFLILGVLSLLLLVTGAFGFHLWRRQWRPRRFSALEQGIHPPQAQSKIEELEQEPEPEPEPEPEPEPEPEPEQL

T3: mouse LAG3 ECD-Fc protein (mouse, UniProt Q61790 24-442)
T3 construct: extracellular domain; not shown: Fc part
T3 sequence (looked up): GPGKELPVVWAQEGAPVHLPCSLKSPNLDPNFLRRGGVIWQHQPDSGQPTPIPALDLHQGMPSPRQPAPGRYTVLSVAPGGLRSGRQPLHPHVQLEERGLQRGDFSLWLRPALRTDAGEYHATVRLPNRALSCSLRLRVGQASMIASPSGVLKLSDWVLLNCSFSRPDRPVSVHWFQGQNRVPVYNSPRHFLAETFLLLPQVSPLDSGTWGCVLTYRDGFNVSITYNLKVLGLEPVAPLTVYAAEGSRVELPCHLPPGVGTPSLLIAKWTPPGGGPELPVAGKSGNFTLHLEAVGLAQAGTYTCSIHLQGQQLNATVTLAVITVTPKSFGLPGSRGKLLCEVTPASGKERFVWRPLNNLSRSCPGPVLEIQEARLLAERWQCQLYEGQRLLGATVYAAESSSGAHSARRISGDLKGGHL

T4: recombinant human LAG-3-ECD-human IgG1 fusion protein (human, UniProt P18627 23-450, biotin-labeled in the MHC class II blocking assays)
T4 construct: extracellular domain; also called LAG-3-huFc; LAG-3-ECD-huFc; not shown: human IgG1 Fc
T4 sequence (looked up): T1 sequence (looked up)

T5: rat LAG3 ECD-Fc protein (rat, UniProt Q5BK54 24-442)
T5 construct: extracellular domain; not shown: Fc part
T5 sequence (looked up): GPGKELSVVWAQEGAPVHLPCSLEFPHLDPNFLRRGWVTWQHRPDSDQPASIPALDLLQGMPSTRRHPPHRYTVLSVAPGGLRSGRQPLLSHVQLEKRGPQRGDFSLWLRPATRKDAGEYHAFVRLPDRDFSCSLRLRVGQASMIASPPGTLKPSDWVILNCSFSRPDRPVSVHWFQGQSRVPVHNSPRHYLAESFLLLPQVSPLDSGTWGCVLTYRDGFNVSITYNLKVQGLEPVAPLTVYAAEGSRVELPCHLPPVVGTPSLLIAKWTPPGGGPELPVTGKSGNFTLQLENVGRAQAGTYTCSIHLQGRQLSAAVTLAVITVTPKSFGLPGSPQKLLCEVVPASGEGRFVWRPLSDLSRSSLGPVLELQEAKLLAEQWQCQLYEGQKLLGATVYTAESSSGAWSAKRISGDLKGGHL

T6: recombinant his-tag human LAG3-ECD protein (human, UniProt P18627 23-450)
T6 construct: extracellular domain; not shown: his tag
T6 sequence (looked up): T1 sequence (looked up)

B1: 25F7 (antibody, V domains shown)
VH: QVQLQQWGAGLLKPSETLSLTCAVYGGSFSDYYWNWIRQPPGKGLEWIGEINHNGNTNSNPSLKSRVTLSLDTSKNQFSLKLRSVTAADTAVYYCAFGYSDYEYNWFDPWGQGTLVTVSS
VL: EIVLTQSPATLSLSPGERATLSCRASQSISSYLAWYQQKPGQAPRLLIYDASNRATGIPARFSGSGSGTDFTLTISSLEPEDFAVYYCQQRSNWPLTFGQGTNLEIK
B2: NLAG3-HDB169-S27 (antibody, human IgG1, V domains shown)
VH: QVQLVQSGAEVKKPGSSVKVSCKASGGTFSSYAISWVRQAPGQGLEWMGGIIPIFGTANYAQKFQGRVTITADESTSTAYMELSSLRSEDTAVYYCTTAAPGSYYLVFHYWGQGTLVTVSS
VL: DIQLTQSPSSLSASVGDRVTITCRASQTISSHLNWYQQKPGKAPKVLIYAASSLQSGVPSRFSGSGSGTEFTLTISSLQPDDFATYYCQQGNSFPFTFGPGTKVEIKR
notes: Short label tied by its unique suffix
B3: NLAG3-HDB169-T99 (antibody, human IgG1, V domains shown)
VH: QVQLVQSGAEVKKPGSSVKVSCKASGGTFSSYAISWVRQAPGQGLEWMGGIIPIFGTANYAQKFQGRVTITADESTSTAYMELSSLRSEDTAVYYCVRDLQDWNYGGAAYWGQGTLVTVSS
VL: VIWMTQSPSSLSASVGDSVTITCQASRDISNSLSWHQQKPGKAPKLLIYAASSLQSGVPSRFSGSGSGTDFTLTISSLQPEDFATYYCQQTKSFPLTFGGGTKVEIKR
notes: as for B2

Tests used:
[1] = target: T1, Bio-LAG3; assay: ELISA, Bio-LAG3 held on streptavidin-coated plate
Method: The streptavidin was coated to an ELISA plate at 2 μg/ml with 100 μl/well. 100 μl of Bio-LAG3 at 1.0 μg/ml was subsequently incubated with streptavidin at RT for 1 hr. B3807, along with a positive control 25F7 and a negative control IgG, were serially diluted with ELISA diluent buffer. To assess binding, the antibodies at various concentrations were added to LAG3 protein-coated plate for 1.5 hr RT. The resulting plates were washed and then labeled with anti-human IgG(Fab)-HRP antibody.

[2] = target: T2, human LAG3 on cells; assay: flow cytometry (MFI) on activated human PBMC (CD4+ cells), lower panel
Method: (§1) To further confirm that B3807 could bind to cell-derived human LAG3, both inducible human LAG3 expressed Jurkat cells and activated PBMCs were used to test the binding capability of B3807. In brief, Jurkat cells were resuspended in FACS buffer. B3807, 25F7 and isotype control were 3-fold serially diluted in FACS buffer with a dose ranging from 20 nM to 9 pM. The serially diluted antibodies were added to the cell suspension and incubated for 30 minutes on ice. Then after removal of unbound antibodies, cells were stained with anti-human IgG conjugated with Alexa Fluor 633 (Thermo, A21091). Fluorescence measurement was acquired on FACSCelesta flow cytometer and analyzed in Flowjo to determine the mean fluorescence intensities (MFI). To test the antibodies' ability of binding to native human LAG3, PBMCs from health donor were stimulated with anti-CD3 (BD, 555336) and anti-CD28 (BD, 555725) both at a concentration of 1 μg/ml. Following 3 days' stimulation, cells were harvested and incubated with anti-LAG3 antibodies for 30 mins on ice. The cells were stained with anti-human CD4 and anti-human IgG. Analysis of antibodies binding to CD4+ cells were carried out on FACSCelesta flow cytometry.

[3] = target: T2, human LAG3 on cells; assay: flow cytometry (MFI) on human LAG3-expressing Jurkat cells, upper panel
Method: as §1

[4] = target: T3, mouse LAG3 ECD-Fc protein; assay: ELISA on coated mouse LAG3 ECD-Fc; EC50 table has no unit, x axis Ab(nM); curve without upper plateau
Method: (§2) To evaluate the capability of the anti-LAG-3 antibodies to bind to human, rat, and mouse LAG3 the antibodies identified in Example 2.1 were evaluated for their binding property through ELISA. The human, rat and mouse LAG3 ECD-Fc protein were coated to ELISA plate at 1 μg/ml with 100 μl/well. Antibodies from Example 1 were serially diluted with ELISA diluent buffer. […] The resulting plates were washed and then labeled with anti-human IgG(Fab)-HRP antibody. The S31 can only bind to human LAG3. The S27 and T99 can bind to human LAG3 and rat/mouse LAG3 with lower potency. The S119 antibody can bind to human, rat and mouse LAG3 at high potency (FIGS. 22A-22D).

[5] = target: T4, recombinant human LAG-3-ECD-human IgG1 …; assay: flow cytometry; blocking of biotin-LAG-3-ECD-huFc binding to MHC class II on Raji cells
Method: To evaluate the ability of anti-LAG-3 antibodies to block the binding of sLAG-3 to MHC class II receptor, an in vitro binding assay was designed using biotin-labeled LAG-3-ECD-huFc fusion proteins and Raji cells expressing MHC class II receptor. Antibodies from Example 1 were serially diluted from 20 μg/mL with FACS buffer and pre-incubated with 6 μg/mL of biotin-LAG-3-ECD-huFcc for 30 min at room temperature. The antibody mixture was then added to FcR blocked Raji cells and incubated for 30 min on ice. Cells were then washed with FACS buffer and subsequently stained with streptavidin PE for 30 min on ice and subsequently washed once with FACS buffer. Labeled cells were evaluated for fluorescence intensity by flow cytometry in a BD FACSCalibur™.

[6] = target: T5, rat LAG3 ECD-Fc protein; assay: ELISA on coated rat LAG3 ECD-Fc; EC50 table has no unit, x axis Ab(nM); curve without upper plateau
Method: as §2

[7] = target: T4, recombinant human LAG-3-ECD-human IgG1 …; assay: ELISA on coated human LAG3 ECD-Fc; EC50 table has no unit, x axis Ab(nM)
Method: as §2

[8] = target: T6, recombinant his-tag human LAG3-ECD …; assay: SPR Biacore T200, antibody captured by anti-human Fc, LAG3-ECD-his injected
Method: The binding of the S20, S24, S27, S31, S87, S119, S120, S128, S136, S161 and T99 antibodies to recombinant his-tag human LAG3-ECD protein was examined by Biacore T200 using a capture method. Anti-LAG3 antibodies were captured using anti-human Fc antibody. The anti-human Fc antibody was coated on chip. Serial concentrations of his-tag human LAG3-ECD protein (0-4 nM) were injected over capture antibodies at the flow rate of 30 μl/min. The dissociation phase was 900 s or 550 s. The Biacore results for the anti-LAG3 antibodies have shown that these anti-LAG3 antibodies are high affinity binder to human LAG3.

Binder | EC50 [1] | EC50 [2] | EC50 [3] | EC50 [4] | IC50 [5] | EC50 [6] | EC50 [7] | Kd [8] | koff [8] | kon [8]
B1 | 0.22 nM | 0.52 nM | 0.57 nM | – | – | – | – | – | – | –
B2 | – | – | – | 12.6 nM | 29.8 nM | 13.9 nM | 0.21 nM | 0.0156 nM | 0.00011 s⁻¹ | 7.04e+06 M⁻¹ s⁻¹
B3 | – | – | – | 16.9 nM | 23.7 nM | 20.9 nM | 0.0638 nM | 0.0224 nM | 0.00017 s⁻¹ | 7.62e+06 M⁻¹ s⁻¹
